Measured values as given in the DeepSol protein solubility set.

Assay: soluble on expression in E. coli; label from the status in PepcDB or PDB records

Sequence | soluble on expression in E. coli
MSELNALLKDINGSLTATSESLERLSGIYSNSATDEIPESNQLHEHLFYDAKKPAEKVSLLSLKNGSMLGYINSLLMLIGNRLDDECKDPSAMDARERSIQHRVVLERGVKPLEKKLAYQLDKLTRAYVKMEKEYKDAEKRALEKSTLVNHSGNDDSEDDESSEDEIAYRPNTSGIINTNKKSSAYRVEETAKQENGEENDDNETGVYKPPKITAVLPPQQTHFEDRFDAREHKDRSNKSRMQAMEEYIRESSDQPDWSASIGADIVNHGRGGIKSLRDTEKERRVTSFEEDNFTRLNITNKAEKRKQKQRERNARMNVIGGEDFGIFSSKRKLEDSTSRRGAKKTRSAWDRAQRRL | soluble
MAHHHHHHVDDDDKMSLLDAHIPQLIASHTAFAAKAGLMRHTIGQAEQQAMSAQAFHQGESAAAFQGAHARFVAAAAKVNTLLDIAQANLGEAAGTYVAADAAAASSYTGF | soluble
MNVTYLHDEDLDFLQHCSEEQLADFARLLTHNEKGKARLSSVLSHNELFKAMEGHPEQHRRNWQLIAGEFQHYGGDSIANKLRGHGKQYRAILLDVAKRLKLKADKSMSTFEIEQQLLEHFLRHTWQKMDAAHKQEFLQAVDAKVSELEELLPLLMKDRSLAKGVSHLLSTQLTRILRTHAAMSILGHGLLRGAGLGGPVGAALNGVKAMSGSAYRVTIPAVLQIACLRRMMAAVQA | not soluble
MSFKGFKVVMLILLSTQSYASKLASSIVCDSTIENPCIVQDSKTQFSPVIRYREVASIADVYGGNITGINKFHLSGSEQPSEKGWEAIAESISRKMGAETKKVIVLDLRQESHGYLNGRAITLVSAYNWINLGKSNSQSTLDQENWLAGLRSRKIVNGVLTVPQYVAKQYSQGKSMVVSTVKNEEYYVYKKGFDYYRIFISDHRAPLDSEVDALVALIKNNPEDTWYHVHCRGGKGRTTTVFAMFDMLKNADKVSFEEIIARQASIPPFYNLMVTNREIPELTPYYEQRLQFLIHFYEFARQSLMGYSGTWSEWKKLNI | not soluble
MSLVKIVDVAKAANVSPAVVSRILSNDSKLVVREETRARVQQAIEALGYTPNLQARGLRLSRSNTLAMIVPELNSPVFPVIIQGAQRAAWERGYSLLVGGMGGEEEDPKVAGRLLRSNRIDGLLVTTGRHEAQMLQELATLNAPFVLVNRYLDDQHPYVELDERGAAAAITRHFIELGHRRIAFLGGLQRRVGERRVAGYADALAEAGLPWVPQLVVDAGYYKPGGEDGLRQLLALDEPPTAVVATNEIVAAGAMAAAHRQGVRIPRDLSIASFSDGIVAELLSPALTAVRFPLERMGYLATAMLVDIVEGRGAPQAGLCLPHESVVVRDSTARPPGRKARAATREGHHHHHH | not soluble
HRVGLYEKALPNHLSWEEKLACTKELGFDFLEISVDESDERRSRLDWDDATIYSLHRLCEEYGVPLQSMCLSAHRKFPFGSADPALRDEALKIMQKAITLAYKLGIRTIQLAGYDVYYEPANSATHQRFIEGMQHAARLAERAGVMLAVEIMDTPYLNALSKFEVLNRQIQSPFFTAYPDVGNISGWNYDLLTELSLSKPHITQIHLKDTYKVSEQYAGQFRDLVIGEGDVDFDELFCRLKALDCVVPLVIEMWAHDEQWQQHIHTAQRRLNQACDRAELP | not soluble
MSKQPMTPFEAIGGEQCIAILVDTFYSYVSKHPDLSPIFPEDLTETARKQKQFLTQYLGGPNLYTEEHGHPMLRARHLPFEITPKRAEAWLSCMEQAMDDTGVHGHIREFVFERLALTAQHMVNTPNETGEV | not soluble
MIKRKLQDLAVCCSYQVDFLHEKKHSVKEFKRKYEVLDEIGRGGFGIVYEATTRQDGQQPVAVKFVQHKHVRSWTMTCRQLIPSEVCHLETCEDIPGVIKILDWFANSKGFLIVMERPANCMDLFDMVSVHGPLNEDMGKFIFKQVITTVFNMYSKHGLLHRDIKDENLIVNMNTGEVKLVDFGATAYAEKATKKEFQGTRSYCPPEWFRDQLYLPLEATSWSLGVLLFILLTGKLPFRNEIQICLGNVKFPPDLSKEVCQLVKSCLTTSTSARASLAQIAAHPWMETDKPFFGGDLTFEEALMEIKNPPVVIEDKEAEEEDNDLNDVVILTRSRESRTDLDAESICTMVTAVEDRYEPSIAVKELEQEEIVETGETTNLMRSESRYDNISSSSFCDYVSLVSSSYDDQFTSTSDIYQSACEVFPHTGSSSSLSRSMGAVKSASAYNLVRMRKKSSIFKSFDTELDPVSENDHQPLIPETSSATCQSTYSNDEDVTISEKVVSPAQPLPPPLSPRKGSLQCFESVPRSRDSVIRMSRHRPLQFAIDSSSPPPALAIFQVSPTASVG | not soluble
